Target: T1, Recombinant Human DLL4 (delta-like protein 4) (human, UniProt Q9NR61 27-524)
T1 construct: also called rHuman DLL4; Delta-like 4
Experiment: ELISA, DLL4 coated on plate, Fab at 100 nM

| ELISA Signal-blank (100 nM Fab) | Binder |
| --- | --- |
| 0.15 | Fab VH5-51_IGHD5-18*01>3_IGHJ4*01 G100K/G104T G24T/S28R/G35V & V3-4_IGLJ1*01 V91L/S96P T53F (Fab, V domains shown, Fab expressed in E. coli; heavy chain vector adds CH1 with His6 and Flag tags, light chain vector adds lambda CL; also called H:KT TRV & L:LP T53F) VH: EVQLVQSGAEVKKPGESLKISCKTSGYRFTSYWIVWVRQMPGKGLEWMGIIYPGDSDTRYSPSFQGQVTISADKSISTAYLQWSSLKASDTAMYYCARRKYSYTYDYFDYWGQGTLVTVSS VL: QTVVTQEPSFSVSPGGTVTLTCGLSSGSVSTSYYPSWYQQTPGQAPRTLIYSFNTRSSGVPDRFSGSILGNKAALTITGAQADDESDYYCLLYMGPGISYVFGTGTKVTVL |
| 0.34 | Fab VH5-51_IGHD5-18*01>3_IGHJ4*01 G100K/G104T G24T/S28R/G35V & V3-4_IGLJ1*01 V91L/S96P S52T (Fab, V domains shown, Fab expressed in E. coli; heavy chain vector adds CH1 with His6 and Flag tags, light chain vector adds lambda CL; also called H:KT TRV & L:LP S52T) VH: EVQLVQSGAEVKKPGESLKISCKTSGYRFTSYWIVWVRQMPGKGLEWMGIIYPGDSDTRYSPSFQGQVTISADKSISTAYLQWSSLKASDTAMYYCARRKYSYTYDYFDYWGQGTLVTVSS VL: QTVVTQEPSFSVSPGGTVTLTCGLSSGSVSTSYYPSWYQQTPGQAPRTLIYTTNTRSSGVPDRFSGSILGNKAALTITGAQADDESDYYCLLYMGPGISYVFGTGTKVTVL |
| 0.33 | Fab VH5-51_IGHD5-18*01>3_IGHJ4*01 G100K/G104T G24T/S28R/G35V & V3-4_IGLJ1*01 V91L/S96P S52F (Fab, V domains shown, Fab expressed in E. coli; heavy chain vector adds CH1 with His6 and Flag tags, light chain vector adds lambda CL; also called H:KT TRV & L:LP S52F) VH: EVQLVQSGAEVKKPGESLKISCKTSGYRFTSYWIVWVRQMPGKGLEWMGIIYPGDSDTRYSPSFQGQVTISADKSISTAYLQWSSLKASDTAMYYCARRKYSYTYDYFDYWGQGTLVTVSS VL: QTVVTQEPSFSVSPGGTVTLTCGLSSGSVSTSYYPSWYQQTPGQAPRTLIYFTNTRSSGVPDRFSGSILGNKAALTITGAQADDESDYYCLLYMGPGISYVFGTGTKVTVL |
| 0.38 | Fab VH5-51_IGHD5-18*01>3_IGHJ4*01 G100K/G104T G24T/S28R/G35V & V3-4_IGLJ1*01 V91L/S96P S52E (Fab, V domains shown, Fab expressed in E. coli; heavy chain vector adds CH1 with His6 and Flag tags, light chain vector adds lambda CL; also called H:KT TRV & L:LP S52E) VH: EVQLVQSGAEVKKPGESLKISCKTSGYRFTSYWIVWVRQMPGKGLEWMGIIYPGDSDTRYSPSFQGQVTISADKSISTAYLQWSSLKASDTAMYYCARRKYSYTYDYFDYWGQGTLVTVSS VL: QTVVTQEPSFSVSPGGTVTLTCGLSSGSVSTSYYPSWYQQTPGQAPRTLIYETNTRSSGVPDRFSGSILGNKAALTITGAQADDESDYYCLLYMGPGISYVFGTGTKVTVL |
| 0.41 | Fab VH5-51_IGHD5-18*01>3_IGHJ4*01 G100K/G104T G24T/S28R/G35V & V3-4_IGLJ1*01 V91L/S96P S52Y (Fab, V domains shown, Fab expressed in E. coli; heavy chain vector adds CH1 with His6 and Flag tags, light chain vector adds lambda CL; also called H:KT TRV & L:LP S52Y) VH: EVQLVQSGAEVKKPGESLKISCKTSGYRFTSYWIVWVRQMPGKGLEWMGIIYPGDSDTRYSPSFQGQVTISADKSISTAYLQWSSLKASDTAMYYCARRKYSYTYDYFDYWGQGTLVTVSS VL: QTVVTQEPSFSVSPGGTVTLTCGLSSGSVSTSYYPSWYQQTPGQAPRTLIYYTNTRSSGVPDRFSGSILGNKAALTITGAQADDESDYYCLLYMGPGISYVFGTGTKVTVL |
| 0.32 | Fab VH5-51_IGHD5-18*01>3_IGHJ4*01 G100K/G104T G24T/S28R/G35V & V3-4_IGLJ1*01 V91L/S96P S52P (Fab, V domains shown, Fab expressed in E. coli; heavy chain vector adds CH1 with His6 and Flag tags, light chain vector adds lambda CL; also called H:KT TRV & L:LP S52P) VH: EVQLVQSGAEVKKPGESLKISCKTSGYRFTSYWIVWVRQMPGKGLEWMGIIYPGDSDTRYSPSFQGQVTISADKSISTAYLQWSSLKASDTAMYYCARRKYSYTYDYFDYWGQGTLVTVSS VL: QTVVTQEPSFSVSPGGTVTLTCGLSSGSVSTSYYPSWYQQTPGQAPRTLIYPTNTRSSGVPDRFSGSILGNKAALTITGAQADDESDYYCLLYMGPGISYVFGTGTKVTVL |
| 0.44 | Fab VH5-51_IGHD5-18*01>3_IGHJ4*01 G100K/G104T G24T/S28R/G35V & V3-4_IGLJ1*01 V91L/S96P S52V (Fab, V domains shown, Fab expressed in E. coli; heavy chain vector adds CH1 with His6 and Flag tags, light chain vector adds lambda CL; also called H:KT TRV & L:LP S52V) VH: EVQLVQSGAEVKKPGESLKISCKTSGYRFTSYWIVWVRQMPGKGLEWMGIIYPGDSDTRYSPSFQGQVTISADKSISTAYLQWSSLKASDTAMYYCARRKYSYTYDYFDYWGQGTLVTVSS VL: QTVVTQEPSFSVSPGGTVTLTCGLSSGSVSTSYYPSWYQQTPGQAPRTLIYVTNTRSSGVPDRFSGSILGNKAALTITGAQADDESDYYCLLYMGPGISYVFGTGTKVTVL |
| 0.32 | Fab VH5-51_IGHD5-18*01>3_IGHJ4*01 G100K/G104T G24T/S28R/G35V & V3-4_IGLJ1*01 V91L/S96P S52K (Fab, V domains shown, Fab expressed in E. coli; heavy chain vector adds CH1 with His6 and Flag tags, light chain vector adds lambda CL; also called H:KT TRV & L:LP S52K) VH: EVQLVQSGAEVKKPGESLKISCKTSGYRFTSYWIVWVRQMPGKGLEWMGIIYPGDSDTRYSPSFQGQVTISADKSISTAYLQWSSLKASDTAMYYCARRKYSYTYDYFDYWGQGTLVTVSS VL: QTVVTQEPSFSVSPGGTVTLTCGLSSGSVSTSYYPSWYQQTPGQAPRTLIYKTNTRSSGVPDRFSGSILGNKAALTITGAQADDESDYYCLLYMGPGISYVFGTGTKVTVL |
| 0.4 | Fab VH5-51_IGHD5-18*01>3_IGHJ4*01 G100K/G104T G24T/S28R/G35V & V3-4_IGLJ1*01 V91L/S96P S52L (Fab, V domains shown, Fab expressed in E. coli; heavy chain vector adds CH1 with His6 and Flag tags, light chain vector adds lambda CL; also called H:KT TRV & L:LP S52L) VH: EVQLVQSGAEVKKPGESLKISCKTSGYRFTSYWIVWVRQMPGKGLEWMGIIYPGDSDTRYSPSFQGQVTISADKSISTAYLQWSSLKASDTAMYYCARRKYSYTYDYFDYWGQGTLVTVSS VL: QTVVTQEPSFSVSPGGTVTLTCGLSSGSVSTSYYPSWYQQTPGQAPRTLIYLTNTRSSGVPDRFSGSILGNKAALTITGAQADDESDYYCLLYMGPGISYVFGTGTKVTVL |
| 0.16 | Fab VH5-51_IGHD5-18*01>3_IGHJ4*01 G100K/G104T G24T/S28R/G35V & V3-4_IGLJ1*01 V91L/S96P T53D (Fab, V domains shown, Fab expressed in E. coli; heavy chain vector adds CH1 with His6 and Flag tags, light chain vector adds lambda CL; also called H:KT TRV & L:LP T53D) VH: EVQLVQSGAEVKKPGESLKISCKTSGYRFTSYWIVWVRQMPGKGLEWMGIIYPGDSDTRYSPSFQGQVTISADKSISTAYLQWSSLKASDTAMYYCARRKYSYTYDYFDYWGQGTLVTVSS VL: QTVVTQEPSFSVSPGGTVTLTCGLSSGSVSTSYYPSWYQQTPGQAPRTLIYSDNTRSSGVPDRFSGSILGNKAALTITGAQADDESDYYCLLYMGPGISYVFGTGTKVTVL |
| 0.53 | Fab VH5-51_IGHD5-18*01>3_IGHJ4*01 G100K/G104T G24T/S28R/G35V & V3-4_IGLJ1*01 V91L/S96P S52G (Fab, V domains shown, Fab expressed in E. coli; heavy chain vector adds CH1 with His6 and Flag tags, light chain vector adds lambda CL; also called H:KT TRV & L:LP S52G) VH: EVQLVQSGAEVKKPGESLKISCKTSGYRFTSYWIVWVRQMPGKGLEWMGIIYPGDSDTRYSPSFQGQVTISADKSISTAYLQWSSLKASDTAMYYCARRKYSYTYDYFDYWGQGTLVTVSS VL: QTVVTQEPSFSVSPGGTVTLTCGLSSGSVSTSYYPSWYQQTPGQAPRTLIYGTNTRSSGVPDRFSGSILGNKAALTITGAQADDESDYYCLLYMGPGISYVFGTGTKVTVL |

From patent US20120316071A1 (published 2012)
